In patent US11655308B2, “HM-3 fusion protein and application thereof” (TASLY BIOPHARMACEUTICALS CO., LTD., priority 2017, dated 2023):

How the values were obtained:
[1] = system: transgenic blood vessel fluorescent zebrafish; experiment: In vivo anti-angiogenesis in zebrafish (SIVs area); parameters: area of SIVs: unit not given here; conditions: 500 ng/tail, 24 h
[2] = system: mice splenic lymphocyte proliferation stimulated by ConA; type: cell-based
Protocol: Experimental method: mice orbit was by bloodletting to death, and immediately immersed in 75% ethanol for 5-10 min, and then the spleen was removed on a clean bench and placed in PBS. The spleen was placed on a sterile cell strainer (200 mesh) and ground with a syringe nozzle; during grinding process, PBS was added continuously; the slurry was collected and centrifuged (1000 rpm for 5 min), then cells were washed 3 times with Tris-ammonium chloride solution, and washed again with a medium, and then re-suspended in the medium. Finally, trypan blue living cell staining was performed on the cells, and the survival rate was more than 95%. The concentration of viable cells was adjusted to 2×10^6/mL. […] was added to each well of a 96-well plate, meanwhile, ConA (concanavalin to simulate splenocyte proliferation) and drugs were added to each well. Six duplicates were set in each group.
The 96-well plate was incubated for 48 h in a 5% CO2 incubator at 37° C. 5 mg/mL of MTT was added to the 96-well plate, 20 μL for each well, and then it was incubated continuously for 4 h in the incubator. The culture medium in the 96-well plate was discarded and 100 μL DMSO was added to each well and mixed gently. Absorbance was measured by a microplate reader at the wavelength of 570 nm and reference wavelength of 630 nm.
Proliferation inhibition rate (PI) was calculated according to formula:
[formula] wherein, Atest is the absorbance of dosing group, and Acontrol is the absorbance of negative control. Test results were expressed as mean±SD, and statistical T test was performed. *P<0.05 indicates significant difference, **P<0.01 indicates extremely significant difference. Based upon the results, the efficacy of the fusion protein against rheumatoid arthritis was screened.
In the P4 control group, TSL-4 fusion protein served as a control agent.

human macrophage U937 = experiment: TNF-α production by LPS-induced human macrophage U937 (ELISA); type: cell-based; conditions: 9 μM; LPS 1 μg/mL, 48 h; negative group 77.6±19.6
Protocol: Experimental method: Human macrophage U937 was cultured in RPMI-1640 medium containing 10% fetal bovine serum and double antibodies in a constant temperature incubator at 37° C. under the condition of 5% CO2, and the medium was replaced every 2 days. U937 cells in the logarithmic phase were collected, resuspended and adjusted to the concentration of 5×10^5/mL. 100 μL of cells was added to each well of a 96-well plate overnight and induced with LPS (1 μg/mL) in the following day, where n=3. At the same time, the cells were treated with agents, and respectively divided into a positive control group adalimumab, an HM-3 polypeptide group, an mPEG-SC-HM-3 polypeptide group, an HM-3 fusion protein (TSL-1, TSL-2, TSL-3, TSL-4) group, and the specific dosing scheme was shown in Table 5.
48 h after the agents worked, culture medium was collected and centrifuged, and supernatant was taken to measure the content of TNF-α therein by ELISA. Test results were expressed as mean±SD, and statistical T test was performed. *P<0.05 indicates significant difference, **P<0.01 indicates extremely significant difference. Based upon the results, the efficacy of the HM-3 fusion protein against rheumatoid arthritis was screened.

[3] = system: transgenic blood vessel fluorescent zebrafish; experiment: In vivo anti-angiogenesis in zebrafish (SIVs area); parameters: area of SIVs: unit not given here; conditions: for inhibition rate of angiogenesis / area of SIVs: 24 h; for area of SIVs: normal control group 53193
Protocol: Experimental method: transgenic blood vessel fluorescent zebrafish was randomly selected and put into a six-well plate with 30 fish per well, and intravenously injected HM-3 polypeptide, TSL-1 fusion protein, TSL-2 fusion protein, TSL-3 fusion protein and TSL-4 fusion protein respectively in accordance with the dosage of 20 ng/tail and 66 ng/tail; the dosage was […] in Avastin positive control and the injection volume was 20 nL/tail; the zebrafish injected 20 nL/tail of buffer solution served as a solvent control group, and the zebrafish without any treatment served as a normal control group. 10 pieces of zebrafish were randomly selected from each group after processed for 24 h to observe the intestinal vessels of the transgenic zebrafish by a fluorescence microscope, as well as to take and maintain images. Image analysis was performed by Nikon MS-Elements D 3.10 to calculate the area (S) of SIVs (subintestinal vessel, SIV). The calculation formula of angiogenesis inhibition rate was as follows: Angiogenesis inhibition rate (%)=(1−S(Test sample group)/S(Normal control group))×100%
Statistical analysis was performed by variance analysis and Dunnett's T-test and the results were expressed as Mean±SD, where p<0.05 indicates a significant difference.

Molecule | inhibition rate of angiogenesis [1] | area of SIVs ([1]; normal control group 53193) | optimal (best) inhibition rate of splenic lymphocyte proliferation ([2]; ConA 5 μg/mL, 48 h, MTT, best of the tested concentrations) | inhibition rate compared with the positive control group ([2]; positive group Dexamethasone 50 μmol/L) | TNF-α content in cell supernatant (human macrophage U937) | inhibiting effect on angiogenesis ([3]; 20 ng/tail) | inhibition rate of angiogenesis ([3]; 20 ng/tail iv) | area of SIVs ([3]; 20 ng/tail iv) | inhibition rate of angiogenesis ([3]; 66 ng/tail iv) | area of SIVs ([3]; 66 ng/tail iv)
Avastin: positive control in the zebrafish angiogenesis test | 29% | 37853 |  |  |  |  |  |  |  | 
IgG2-Fc-(GGGGS)3-HM-3 (protein) VECPPCPAPPVAGPSVFLFPPKPKDTLMISRTPEVTCVVVDVSHEDPEVQFNWYVDGVEVHNAKTKPREEQFNSTFRVVSVLTVVHQDWLNGKEYKCKVSNKGLPAPIEKTISKTKGQPREPQVYTLPPSREEMTKNQVSLTCLVKGFYPSDISVEWESNGQPENNYKTTPPMLDSDGSFFLYSKLTVDKSRWQQGNVFSCSVMHEALHNHYTQKSLSLSPGKGGGGSGGGGSGGGGSIVRRADRAAVPGGGGRGD |  |  | 61.4% | higher than that of the positive control group | 38.6 ± 12.9 pg/mL | significant inhibitory effect | 23% | 40705 | 27% | 38660
